Target: respiratory complex IV (S. cerevisiae (endogenous in yeast mitochondria)) (UniProt P00410)
Test: co-IP

Chain of UniProt P00410 (P00410 whole entry, looked up, one chain of several): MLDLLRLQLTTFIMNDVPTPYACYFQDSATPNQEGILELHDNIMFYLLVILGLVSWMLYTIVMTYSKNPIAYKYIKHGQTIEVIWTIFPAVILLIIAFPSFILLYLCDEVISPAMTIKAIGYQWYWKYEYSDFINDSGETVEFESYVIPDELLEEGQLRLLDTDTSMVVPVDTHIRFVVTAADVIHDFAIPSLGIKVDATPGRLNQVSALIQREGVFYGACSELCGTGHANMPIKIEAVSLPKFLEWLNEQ

AAC2, the major ADP/ATP carrier (endogenous) (from UniProt P18239 1-318) (natural protein)
percent of the total AAC2 content associated with the respiratory supercomplex: 0.5 to 1%

Source: PMC2528576
